Measurements as given in patent US6057104.

Assays:
[1] = target: MmRad51, full length, fused to the GAL4 DNA-binding domain (the "bait") (mouse); assay: yeast two-hybrid in HF7c cells, full length MmRad51 bait; relative to full length MmRad51 prey as 100%
[2] = target: MmRad51, full length, fused to the GAL4 DNA-binding domain (the "bait") (mouse); assay: yeast two-hybrid in HF7c cells, full length MmRad51 bait, X-gal staining
[3] = target: MmRad51, full length, fused to the GAL4 DNA-binding domain (the "bait") (mouse); assay: yeast two-hybrid in HF7c cells, full length MmRad51 bait; relative to the positive control
[4] = target: MmRad51, full length, fused to the GAL4 DNA-binding domain (the "bait") (mouse); assay: yeast two-hybrid in HF7c cells, full length MmRad51 bait; the reference of the scale
[5] = target: mammalian Rad51 (MmRad51), wild-type protein of the cells (mouse)
[6] = target: MmRad51, full length, fused to the GAL4 DNA-binding domain (the "bait") (mouse); assay: yeast two-hybrid against full length MmRad51

Substance: MmRad51 deletion TR1-43, as two-hybrid prey
- relative β-galactosidase activity [1]: 43%
- time until yeast cells stained blue [2]: < 5 min

Substance: MmRad51 deletion TR1-93, as two-hybrid prey
- relative β-galactosidase activity [1]: 4%
- time until yeast cells stained blue [2]: 30 min

Substance: MmRad51 deletion TR1-131, as two-hybrid prey
- relative β-galactosidase activity [3]: 11%

Substance: MmRad51 deletion TR1-175, as two-hybrid prey
- relative β-galactosidase activity [3]: 9%

Substance: MmRad51 deletion TR43-339, as two-hybrid prey
- relative β-galactosidase activity [1]: 1

Substance: MmRad51 deletion TR131-339, as two-hybrid prey
- relative β-galactosidase activity [1]: 1

Substance: MmRad51, full length, as two-hybrid prey
- relative β-galactosidase activity [4]: 100%

Substance: altered Rad51 product encoded by rad51K-A134, expressed in ES cells
- relative targeting frequency (TG^r +G418^r /G418^r colonies) at HPRT in ES cells, IVH-tk as 100% [5]: 54%

Substance: rad51K-A134 product, as tested in the yeast two-hybrid system
- relative β-galactosidase activity [6]: 90%
